In patent US20260139065A1 (Novartis, published 2026):

Target: T1, BAFF-R (B-cell activating factor receptor) (human, UniProt Q96RJ3 1-78, limits assumed)
T1 construct: also called BAFF receptor; BR3
T1 sequence (looked up): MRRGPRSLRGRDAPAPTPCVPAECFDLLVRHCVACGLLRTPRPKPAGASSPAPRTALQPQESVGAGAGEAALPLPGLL
Assay: in vitro experiments (method not given); used as a parameter of the tissue receptor occupancy model

Kd: 46 pM
B1: ianalumab (antibody, human IgG1, kappa, V domains shown)
VH: QVQLQQSGPGLVKPSQTLSLTCAISGDSVSSNSAAWGWIRQSPGRGLEWLGRIYYRSKWYNSYAVSVKSRITINPDTSKNQFSLQLNSVTPEDTAVYYCARYDWVPKIGVFDSWGQGTLVTVSS
VL: DIVLTQSPATLSLSPGERATLSCRASQFISSSYLSWYQQKPGQAPRLLIYGSSSRATGVPARFSGSGSGTDFTLTISSLEPEDFAVYYCQQLYSSPMTFGQGTKVEIKR
notes: also called VAY736; anti-BAFF-R antibody
